Measured values published in the RNAGym collection of RNA variant scans (doi:10.1021/acssynbio.7b00057).

B1: Pistol ribozyme (parent)
chain: GGGUCGUUGUUCCAUAAUCGCGUGGAUAUGGCACGCAAGUUUCUACCGGGCACCGUAAAUGUCCGACUGGAGCCGUUCGGGCGGCUAUAAACAGACCUCAGGCCCGAAGCGUGGCGGCACCUGCCGCCGGUGGUAAAAAAGAUCGGAAGAGCACACGUCU

Variants of: B1
Test: aptazyme ON/OFF ratio, guanine; higher = stronger switching; co-transcriptional cleavage with and without guanine

Variant	aptazyme ON/OFF ratio
U7G U8A G9U U10G U11G C12G C13U	1.05
U7G U8A G9U U10G U11G C12G C13A	1.15
U7G U8A G9U U10G U11G C12G C13G	1.24
U7G U8A G9U C12A C13U	1.1
U7G U8A G9U C12A C13G	1.05
U7G U8A G9U C12A C13A	1.1
U7G U8A G9U U10A	1.46
U7G U8A G9U U10G	1.51
U7G U8A G9U U10C	3.13
U7G U8A G9U U10C C12G C13G	1.29
U7G U8A G9U U10C C12G C13A	1.28
U7G U8A G9U U10C C12G C13U	1.19
U7G U8A U10A U11G C12A C13G	1.19
U7G U8A U10A U11G C12A C13U	1.17
U7G U8A U10A U11G C12A C13A	1.17
U7G U8A G9U U10C U11G C12U C13U	1.19
U7G U8A G9U U10C U11G C12U C13A	1.09
U7G U8A G9U U10C U11G C12U C13G	1.07
U7G U8A G9U U10A U11A C12A	1.08
U7G U8A G9U U10A U11A C12U	1.09
U7G U8A G9U U10A U11A C12G	1.05
U7G U8A U10A U11A C12G C13G	1.2
U7G U8A U10A U11A C12G C13U	1.46
U7G U8A U10A U11A C12G C13A	1.14

Variant	aptazyme ON/OFF ratio
U7G U8A G9U U10A U11A C13U	1.07
U7G U8A G9U U10A U11A C13A	1.13
U7G U8A G9U U10A U11A C13G	1.02
U7G U8A G9U U11A C13G	1.02
U7G U8A G9U U11A C13A	1.09
U7G U8A G9U U11A C13U	1.11
U7G U8A U10A C12U C13G	1.28
U7G U8A U10A C12U C13A	1.24
U7G U8A U10A C12U C13U	1.09
U7G U8A G9U U10A C12G C13A	1.05
U7G U8A G9U U10A C12G C13U	1.04
U7G U8A G9U U10A C12G C13G	1.07
U7G U8A G9U U10A U11G C12G C13A	1.13
U7G U8A G9U U10A U11G C12G C13G	1.15
U7G U8A G9U U10A U11G C12G C13U	1.08
U7G U8A G9U U11A C12U	1.17
U7G U8A G9U U11A C12G	1.14
U7G U8A G9U U11A C12A	1.14
U7G U8A G9U U10G U11A C12U C13G	1.03
U7G U8A G9U U10G U11A C12U C13A	1.11
U7G U8A G9U U10G U11A C12U C13U	1.02
U7G U8A G9U U10G C12A C13A	1.11
U7G U8A G9U U10G C12A C13U	1.08
U7G U8A G9U U10G C12A C13G	1.03

Variant	aptazyme ON/OFF ratio
U7G U8A G9U U10C C12U C13G	1.04
U7G U8A G9U U10C C12U C13A	1.12
U7G U8A G9U U10C C12U C13U	1.03
U7G U8A U10C C12A	1.5
U7G U8A U10C C12G	1.46
U7G U8A G9U U10A U11C C12G	1.09
U7G U8A G9U U10A U11C C12U	1.03
U7G U8A G9U U10A U11C C12A	1.07
U7G U8A G9U U10C C12A	1.2
U7G U8A G9U U10C C12G	1.52
U7G U8A G9U U10C C12U	1.32
U7G U8A G9U U10C U11C C12A C13G	1.23
U7G U8A G9U U10C U11C C12A C13U	1.09
U7G U8A G9U U10C U11C C12A C13A	1.09
U7G U8A U10A U11C C12A C13A	1.26
U7G U8A U10A U11C C12A C13U	1.17
U7G U8A U10A U11C C12A C13G	1.25
U7G U8A G9U U10G U11A C13G	1.06
U7G U8A G9U U10G U11A C13A	1.06
U7G U8A G9U U10G U11A C13U	1.06
U7G U8A G9U U11A C12U C13G	1.07
U7G U8A G9U U11A C12U C13U	1.07
U7G U8A G9U U11A C12U C13A	1.02
U7G U8A G9U U10G C12U	1.13

Variant	aptazyme ON/OFF ratio
U7G U8A G9U U10G C12A	1.09
U7G U8A G9U U10G C12G	1.07
U7G U8A G9U U10G U11A C12A C13G	1.07
U7G U8A G9U U10G U11A C12A C13U	1.07
U7G U8A G9U U10G U11A C12A C13A	1.12
U7G U8A G9U U11G C12A C13G	1.05
U7G U8A G9U U11G C12A C13A	1.09
U7G U8A G9U U11G C12A C13U	1.09
U7G U8A G9U U10A C12A C13U	1.06
U7G U8A G9U U10A C12A C13A	1.04
U7G U8A G9U U10A C12A C13G	1.06
U7G U8A U10A U11G C12U C13A	1.38
U7G U8A U10A U11G C12U C13U	1.71
U7G U8A U10A U11G C12U C13G	1.14
U7G U8A G9U U10A C12U C13A	1.07
U7G U8A G9U U10A C12U C13U	1.07
U7G U8A G9U U10A C12U C13G	1.06
U7G U8A G9U C12U C13U	1.07
U7G U8A G9U C12U C13A	1.06
U7G U8A G9U C12U C13G	1.07
U7G U8A G9U U10C U11A C12G C13G	1.07
U7G U8A G9U U10C U11A C12G C13A	1.1
U7G U8A G9U U10C U11A C12G C13U	1.09
U7G U8A G9U U11G C12G C13A	1.01

Variant	aptazyme ON/OFF ratio
U7G U8A G9U U11G C12G C13U	1.06
U7G U8A G9U U11G C12G C13G	1.03
U7G U8A U10A U11C C13A	1.03
U7G U8A U10A U11C C13U	1
U7G U8A U10A U11C C13G	1.06
U7G U8A G9U U10C U11G C12G	1.1
U7G U8A G9U U10C U11G C12A	1.06
U7G U8A G9U U10C U11G C12U	1.35
U7G U8A G9U U10C U11G C12A C13G	1.05
U7G U8A G9U U10C U11G C12A C13U	1.11
U7G U8A G9U U10C U11G C12A C13A	1.08
U7G U8A U10C C12G C13A	1.39
U7G U8A U10A U11G C12A	1.11
U7G U8A U10A U11G C12U	1.14
U7G U8A U10A U11G C12G	1.33
U7G U8A G9U U11C	1.08
U7G U8A G9U U11A	1.39
U7G U8A G9U U11G	1.17
U7G U8A G9U U10A U11C C12A C13A	1.1
U7G U8A G9U U10A U11C C12A C13G	1.02
U7G U8A G9U U10A U11C C12A C13U	1.05
U7G U8A G9U U10A U11G C12A C13A	1.09
U7G U8A G9U U10A U11G C12A C13G	1.06
U7G U8A G9U U10A U11G C12A C13U	1.09

Variant	aptazyme ON/OFF ratio
U7G U8A U10A U11A C12U C13U	1.31
U7G U8A U10A U11A C12U C13A	1.22
U7G U8A U10A U11A C12U C13G	1.29
U7G U8A G9U U11G C12A	1.07
U7G U8A G9U U11G C12U	1.23
U7G U8A G9U U11G C12G	1.12
U7G U8A G9U U10G U11G C12U C13G	1.06
U7G U8A G9U U10G U11G C12U C13A	1.04
U7G U8A G9U U10G U11G C12U C13U	1.12
U7G U8A G9U U10C U11G C13A	1.1
U7G U8A G9U U10C U11G C13G	1.09
U7G U8A G9U U10C U11G C13U	1.09
U7G U8A G9U U10A U11C C12U C13U	1.01
U7G U8A G9U U10A U11C C12U C13A	1.07
U7G U8A G9U U10A U11C C12U C13G	1.07
U7G U8A G9U U10A U11G C12G	1.08
U7G U8A G9U U10A U11G C12A	1.06
U7G U8A G9U U10A U11G C12U	1.16
U7G U8A U10C C12A C13U	1.34
U7G U8A U10C C12A C13G	1.27
U7G U8A U10C C12A C13A	1.39
U7G U8A G9U U11C C12G C13A	1.09
U7G U8A G9U U11C C12G C13U	1.08
U7G U8A G9U U11C C12G C13G	1.04

Variant	aptazyme ON/OFF ratio
U7G U8A G9C U11G C12U C13G	1.07
U7G U8A G9C U11G C12U C13A	1.05
U7G U8A G9C U11G C12U C13U	1.19
U7G U8A G9U U10C U11C C12U	1.06
U7G U8A G9U U10C U11C C12A	1.09
U7G U8A G9U U10C U11C C12G	1.08
U7G U8A G9U U10A U11C C13A	1.04
U7G U8A G9U U10A U11C C13U	1.02
U7G U8A G9U U10A U11C C13G	1.02
U7G U8A G9U U10G U11G C12U	1.15
U7G U8A G9U U10G U11G C12G	1.29
U7G U8A G9U U10G U11G C12A	1.24
U7G U8A U10A	1.35
U7G U8A U10C	2.69
U7G U8A G9U U10C U11A C12U C13A	1.05
U7G U8A G9U U10C U11A C12U C13U	1.06
U7G U8A G9U U10C U11A C12U C13G	1.09
U7G U8A U10A C12G C13A	1.23
U7G U8A U10A C12G C13U	1.47
U7G U8A U10A C12G C13G	1.22
U7G U8A U10A U11C C12G C13U	1.18
U7G U8A U10A U11C C12G C13A	1.28
U7G U8A U10A U11C C12G C13G	1.07
